The record followed here is US20210206856A1 (PANDION OPERATIONS, published 2021).

Assay [1] addresses T1, mouse MAdCAM expressed on cells (mouse, UniProt Q61826 22-405).
T1 construct: whole, on cells
T1 sequence (looked up): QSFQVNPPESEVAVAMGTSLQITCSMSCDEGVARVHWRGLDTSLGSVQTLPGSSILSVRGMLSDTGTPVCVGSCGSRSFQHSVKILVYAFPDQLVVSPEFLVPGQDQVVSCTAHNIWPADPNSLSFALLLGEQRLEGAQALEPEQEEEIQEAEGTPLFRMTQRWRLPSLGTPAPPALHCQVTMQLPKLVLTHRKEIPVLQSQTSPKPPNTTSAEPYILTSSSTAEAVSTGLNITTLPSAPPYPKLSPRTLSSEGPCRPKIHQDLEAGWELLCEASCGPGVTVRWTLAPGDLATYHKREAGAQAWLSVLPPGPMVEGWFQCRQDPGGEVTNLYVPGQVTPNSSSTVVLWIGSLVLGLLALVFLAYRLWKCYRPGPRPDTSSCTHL
Kind of assay: cell binding.

In assay [2] the target is T2, human MAdCAM expressed on cells (human, UniProt Q13477 19-382).
T2 construct: whole, on cells; also called MADCAM1
T2 sequence (looked up): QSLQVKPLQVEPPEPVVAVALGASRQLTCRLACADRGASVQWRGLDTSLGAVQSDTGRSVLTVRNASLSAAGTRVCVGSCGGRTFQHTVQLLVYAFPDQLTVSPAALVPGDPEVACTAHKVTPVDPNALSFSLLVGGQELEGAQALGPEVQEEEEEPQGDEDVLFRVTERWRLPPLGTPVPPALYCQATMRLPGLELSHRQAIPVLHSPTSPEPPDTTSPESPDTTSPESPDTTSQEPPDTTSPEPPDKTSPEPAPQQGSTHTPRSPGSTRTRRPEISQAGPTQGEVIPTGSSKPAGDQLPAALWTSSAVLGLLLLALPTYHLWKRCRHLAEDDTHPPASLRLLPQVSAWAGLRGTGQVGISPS
Kind of assay: cell binding.

Positions count from the first letter of the chain named.

B1: MAdCAM Antibody Table 2 Clone 57 (antibody, human IgG1, V domains shown)
VH: EVQLLESGGGLVQPGGSLRLSCAASGFSVSSNYMSWVRQAPGKGLEWVAGISYDGSSKPYADSVKGRFTISRDNSKNTLYLQMNSLRAEDTAVYYCARSRGIAARPLQHWGQGTLVTVSS
VL: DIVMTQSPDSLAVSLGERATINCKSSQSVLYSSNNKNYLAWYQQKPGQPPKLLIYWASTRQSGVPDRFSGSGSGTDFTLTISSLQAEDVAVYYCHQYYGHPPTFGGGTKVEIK
With B1, the binding result in assay [1] was “no binding”; in assay [2] it was “binds”.

B2: MAdCAM Antibody Table 2 Clone 58 (antibody, human IgG1, V domains shown)
VH: B1 VH
VL: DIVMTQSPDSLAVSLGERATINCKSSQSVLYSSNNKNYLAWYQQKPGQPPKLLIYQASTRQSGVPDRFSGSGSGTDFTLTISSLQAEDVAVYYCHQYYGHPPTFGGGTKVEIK
In the case of B2, the binding result in assay [1] is listed as “no binding”; in assay [2] it was “binds”.

B3: MAdCAM Antibody Table 2 Clone 62 (antibody, human IgG1, V domains shown)
VH: QVQLVQSGAEVKKPGASVKVSCKASGYTFTSYDINWVRQAPGQGLEWMGWINPNSGTTGYAQKFQGRVTMTRDTSTSTVYMELSSLRSEDTAVYYCARSPYYYYGMDVWGQGTTVTVSS
VL: DIQMTQSPSSLSASVGDRVTITCRASHFISRWVAWYQQKPGKAPKLLIYAASTLQSGVPSRFSGSGSGTDFTLTISSLQPEDFATYYCQQSYSGISFGPGTKVDIK
Take B3: the binding result is reported as “no binding” in assay [1] and “binds” in assay [2].

B4: MAdCAM Antibody Table 2 Clone 66 (antibody, human IgG1, V domains shown)
VH: QVQLVQSGAEVKKPGASVKVSCKASGYTFTGHYMHWVRQAPGQGLEWMGIINPSGGSTSYAQKFQGRVTMTRDTSTSTVYMELSSLRSEDTAVYYCARDGAWFGEEYYYGMDVWGQGTTVTVSS
VL: DIQMTQSPSSLSASVGDRVTITCRASQGISNWLAWYQQKPGKAPKLLIYDASNLETGVPSRFSGSGSGTDFTLTISSLQPEDFATYYCQQYYSFPLYTFGQGTKVEIK
Regarding B4, the binding result in assay [1] is listed as “no binding”; in assay [2] it was “binds”.

B5: MAdCAM Antibody Table 2 Clone 68 (antibody, human IgG1, V domains shown)
VH: EVQLLESGGGLVQPGGSLRLSCAASGFTFGDYAMSWVRQAPGKGLEWVAVVSYDGTNKYYADSVKGRFTISRDNSKNTLYLQMNSLRAEDTAVYYCAKDICSSTSCYFDLWGRGTLVTVSS
VL: DIQMTQSPSSLSASVGDRVTITCRASQNINNYVNWYQQKPGKAPKLLIYDASNLETGVPSRFSGSGSGTDFTLTISSLQPEDFATYYCQQANSFPPTFGQGTRLEIK
With B5, the binding result in assay [1] was “no binding”; in assay [2], “binds”.

B6: MAdCAM Antibody Table 2 Clone 53 (antibody, human IgG1, V domains shown)
VH: QVQLVQSGAEVKKPGASVKVSCKASGYTFTSYYMHWVRQAPGQGLEWMGWMNPNSGNTGYAQKFQGRVTMTRDTSTSTVYMELSSLRSEDTAVYYCAREGLGYCTNGVCWNYYGMDVWGQGTLVTVSS
VL: DIQMTQSPSSLSASVGDRVTITCRASQGISSWLAWYQQKPGKAPKLLIYGASSLQSGVPSRFSGSGSGTDFTLTISSLQPEDFATYYCQQSYSTPYTFGQGTKVEIK
Regarding B6, the binding result in assay [1] is “no binding”; in assay [2], “binds”.

B7: MAdCAM Antibody Table 2 Clone 69 (antibody, human IgG1, V domains shown)
VH: QVQLVQSGAEVKKPGASVKVSCKASGYTFTSYYMHWVRQAPGQGLEWMGIIDPSGGSTSYAQKFQGRVTMTRDTSTSTVYMELSSLRSEDTAVYYCAREEWSSGGVGYFDYWGQGTLVTVSS
VL: B6 VL with W32Y, G50A, A51T, S56T, S91T, T94I, Y96I, K103R, V104L
As to B7, the binding result is given as “no binding” in assay [1] and “binds” in assay [2].

B8: MAdCAM Antibody Table 2 Clone 61 (antibody, human IgG1, V domains shown)
VH: QVQLVQSGAEVKKPGASVKVSCKASGDTFTGYYIHWVRQAPGQGLEWMGWINPNSGGTNYAQKFQGRVTMTRDTSTSTVYMELSSLRSEDTAVYYCARSGLWLGSYYGMDVWGQGTLVTVSS
VL: B6 VL with G28T, S31I, G50D, S53T, S91Y, Y92S, T94Y, Y96L
B8: the figures for the binding result in assay [1] and in assay [2] were “no binding” and “binds”, respectively.

B9: MAdCAM Antibody Table 2 Clone 72 (antibody, human IgG1, V domains shown)
VH: QVQLVQSGAEVKKPGASVKVSCKASGYTFTSYYMHWVRQAPGQGLEWMGVINPIGGTTTYAQKFQGRVTMTRDTSTSTVYMELSSLRSEDTAVYYCASGAPSYYYYGMDVWGQGTLVTVSS
VL: B6 VL with G28S, W32Y, A34N, A51T, S53Y, Q55A, S56T, Y96L
Consider B9, for which the binding result is reported as “no binding” in assay [1] and “binds” in assay [2].

B10: MAdCAM Antibody Table 2 Clone 70 (antibody, human IgG1, V domains shown)
VH: QVQLVQSGAEVKKPGASVKVSCKASGYPFTDYYMHWVRQAPGQGLEWMGWIKPNSGDTEYAQKFQGRVTMTRDTSTSTVYMELSSLRSEDTAVYYCARDRFVGKPDYYYYGMDVWGQGTMVTVSS
VL: B6 VL with G28S, S31V, G50A, S93D, V104L
For the molecule B10, the values for the binding result in assay [1] and in assay [2] were “no binding” and “binds”, respectively.

B11: MAdCAM Antibody Table 2 Clone 60 (antibody, human IgG1, V domains shown)
VH: EVQLLESGGGLVQPGGSLRLSCAASGFTFSDHGMHWVRQAPGKGLEWVSVIYGGESTYYADSVKGRFTISRDNSKNTLYLQMNSLRAEDTAVYYCARDPAVAGGGIFDYWGQGTLVTVSS
VL: B6 VL with S31N, W32Y, G50D, S53N, Q55E, S56T, P95C, V104L
As for B11, the binding result in assay [1] and in assay [2] was “binds” throughout.

B12: MAdCAM Antibody Table 2 Clone 67 (antibody, human IgG1, V domains shown)
VH: QVQLVQSGAEVKKPGASVKVSCKASGYTFTGYYMHWVRQAPGQGLEWMGMIYPRDGSTSYAQKFQGRVTMTRDTSTSTVYMELSSLRSEDTAVYYCAMTGWGYGMDVWGKGTTVTVSS
VL: B6 VL with S30N, S31N, W32Y, G50D, S53T, T94A, Y96P, V104L
Take B12: the results for the binding result in assay [1] and in assay [2] were “no binding” and “binds”, respectively.

B13: MAdCAM Antibody Table 2 Clone 71 (antibody, human IgG1, V domains shown)
VH: QVQLVQSGAEVKKPGASVKVSCKASGYTFTSYYMHWVRQAPGQGLEWMGIINPSGGSTSYAQKFQGRVTMTRDTSTSTVYMELSSLRSEDTAVYYCARDSVAGTGGRYYGMDVWGQGTLVTVSS
VL: B6 VL with S31N, W32Y, L33F, G50A, S56G, T94L, V104L
B13: the binding result in assay [1] is “no binding”; in assay [2] it was “binds”.

B14: MAdCAM Antibody Table 2 Clone 56 (antibody, human IgG1, V domains shown)
VH: EVQLVESGGGLVKPGGSLRLSCAASGFTFSSYWMSWVRQAPGKGLEWVSAIGTGGGTYYAAPVKGRFTISRDDSKNTLYLQMNSLKTEDTAVYYCAREWLVPYYGMDVWGQGTTVTVSS
VL: B6 VL with G28S, S31R, S53N, Y96W
As for B14, the binding result in assay [1] is “no binding”; in assay [2] it was “binds”.

B15: MAdCAM Antibody Table 2 Clone 63 (antibody, human IgG1, V domains shown)
VH: EVQLLESGGGLVQPGGSLRLSCAASGFTFNNYGMNWVRQAPGKGLEWVSRINSDGSSTSYADSVKGRFTISRDNSKNTLYLQMNSLRAEDTAVYYCARGAYYYYYMDVWGQGTLVTVSS
VL: EIVMTQSPATLSVSPGERATLSCRASQSVSGSYLAWYQQKPGQAPRLLIYATSSRASGIPARFSGSGSGTEFTLTISSLQSEDFAVYYCQQYYSGLTFGQGTKVEIK
B15: the binding result in assay [1] is given as “no binding”; in assay [2], “binds”.

B16: MAdCAM Antibody Table 2 Clone 54 (antibody, human IgG1, V domains shown)
VH: QVQLVQSGAEVKKPGSSVKVSCKASGGTLSRYGVSWVRQAPGQGLEWMGGIIPIFGTTNYAQKFQGRVTITADESTSTAYMELSSLRSEDTAVYYCARDRVYYDSSGYPTWYFDLWGRGTLVTVSS
VL: EIVMTQSPATLSVSPGERATLSCRASQSVSSSYLAWYQQKPGQAPRLLIYGASTRATGIPARFSGSGSGTEFTLTISSLQSEDFAVYYCQQYGSSPITFGQGTKVEIK
As to B16, the binding result in assay [1] is reported as “no binding”; in assay [2] it was “binds”.

B17: MAdCAM Antibody Table 2 Clone 55 (antibody, human IgG1, V domains shown)
VH: EVQLLESGGGLVQPGGSLRLSCAASGFTFDDFAMHWVRQAPGKGLEWVSGISGNGDSRYYADSVKGRFTISRDNSKNTLYLQMNSLRAEDTAVYYCARDASYGGNYGMDVWGQGTTVTVSS
VL: DIQMTQSPSSLSASVGDRVTITCQASQDIRNYLNWYQQKPGKAPKLLIYKASTLESGVPSRFSGSGSGTDFTLTISSLQPEDFATYYCQQANSFPLTFGPGTKVDIK
On to B17, for which the results for the binding result in assay [1] and in assay [2] were “no binding” and “binds”, respectively.

B18: MAdCAM Antibody Table 2 Clone 64 (antibody, human IgG1, V domains shown)
VH: EVQLLESGGGLVQPGGSLRLSCAASGFTFSNSDMNWVRQAPGKGLEWVAHIWNDGSQKYYADSVKGRFTISRDNSKNTLYLQMNSLRAEDTAVYYCARDRTDPGYSSAMDVWGQGTTVTVSS
VL: B17 VL with Q24R, N34G, K50D, T53S, S56T, N92T, F94L, P100G, D105E
Consider B18, for which the binding result is reported as “no binding” in assay [1] and “binds” in assay [2].
